Publication PMC6346578

Legend:
[1] = target: T1, SACE_5754 (TetR family regulator) (Saccharopolyspora erythraea A226?) (UniProt A4FLL4); experiment: EMSA; conditions: EMSA: 10 mM Tris pH 7.5, 5 mM MgCl2, 60 mM KCl, 10 mM DTT, 50 mM EDTA (so in the source), 10% glycerol, 30 C 10 min, 20 uL; 6% native PAGE, 1x TAE. Footprinting: …
T1 sequence: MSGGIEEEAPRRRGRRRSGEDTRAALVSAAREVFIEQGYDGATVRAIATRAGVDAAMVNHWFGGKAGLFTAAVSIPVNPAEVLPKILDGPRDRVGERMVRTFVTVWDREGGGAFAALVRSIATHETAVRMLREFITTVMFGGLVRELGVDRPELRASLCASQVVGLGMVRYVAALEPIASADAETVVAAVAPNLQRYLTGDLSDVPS

[2] = target: T1, SACE_5754 (TetR family regulator) (Saccharopolyspora erythraea A226?); experiment: DNase I footprinting; conditions: EMSA: 10 mM Tris pH 7.5, 5 mM MgCl2, 60 mM KCl, 10 mM DTT, 50 mM EDTA (so in the source), 10% glycerol, 30 C 10 min, 20 uL; 6% native PAGE, 1x TAE. Footprinting: …

Sequence | binding [1] | binding [2]
TCGGCGCCTCCTCCTCGATGCCACCGCTCACACCGCCATCCTCGCTGTCGGCCGCTTCGGGGTGCAAAGCCGGGCTGCGCGCGGCACCCGCCCTGGCGGACGGCACAATTGGGGCATGGTGGGCGGCGACATCGGCAAGATCAGTC (double strand) [P5753-5754] | no binding | 
GGTGGCTTCTGGCGTGCTCATAACGCGTTCAGCGTATCCAGTCGGCTTCCGCCCTTGACCGGCGAGTCCCGGCAGGGCACCCTGAAGTTATTCAACATGCGTTGAAAACTTGGAGGATCGCGATGGAGCGAACGACGTGTTGC (double strand) [P6148-6149] | binds | binds
GGCGGGCAGGAAATCAACACTTGTTGAATTACGGTCGCGCACGCGCTCCGCGATCGCGCGGACACTTACCGCTTCGGGCGGAAATGCATTGCAAGCAAAGAAGATTGGGCCGTTCGGCGGCATCCGGGCCGAGTGGTCAAGCGCACAGAGAACTGAGTTGCCCGCGCCCGTCCGTGCGATGCATGCTTGCGTCCAGCAACTAGTTGGTTGCTGCAATCAAATCGGTTGCGCTCGCCGGGGG (double strand) [Probe 1] | binds | 
CTGTGCAGTACCTGGAGGGCGGACCCTCCGGACGCGGGTTGTTCGTCGGTGTGCGCGGATGACCCGTGCGTTCGCGTTTTCCGTTCCTGGCACAGGTGATCCGCTCCACGGGCCCTTTCCCCGCCGTGACCGGACCCTTACAGTGAGTGCGGGTCTTGATCGACAACGCCCGGCGGCAGCAAGCGGAGCCGTCGACGACACCGCAGGGAGAGTCGATGGGTGATCGGACCGGCGACCGGACGATTCCGGAATCCTCGCAGACCGCAACGCGTTTCCTGCTCGGC (double strand) [PeryBVI] | no binding | 
TGCCCGAAAGGTAACCCCGCGGCGGGCAGGAAATCAACACTTGTTGAATTACGGTCGCGCACGCGCTCCGCGATCGCGCGGACACTTACCGCTTCGGGCGGAAATGCATTGCAAGCAAAGAAGATTGGGCCGTTCGGCGGCATCCGGGCCGAGTGGTCAAGCGCACAGAGAACTGAGTTGCCCGCGCCCGTCCGTGCGATGCATGCTTGCGTCCAGCAACTAGTTGGTTGCTGCAATCAAATCGGTTGCGCTCGCCGGGGG (double strand) [P0388-0389] | binds | binds
CATCGTGCCCAGCCAGTCGAGGAGTGCGGTTTCGTCGGCCATGCCGGGAACTTCGTCGATGGTGGTCAACGTTCTCCTCGCGCAGCAGGTCGTTTCCACGTCGGCGAACACGCGTCGCGATCTTGAGCTTAGTCGCGCGCCGGACGGGGTGTCGAGACTTCCGCGGTGGCGGTGGGAACAGTGAGCACGGCGTCGAACGCGTCGCGCAGCGGCGTCCGCATCCACGTGCTCTGGGAGCGGATCCGGTCC (double strand) [PeryK] | no binding | 
TCACCACCTGAAACCGCCACCGTTTTCCCGGAATCCGGCCACCGGAACCGGACCGGCCGAAATGGACATTCCGCCACGGTGCCGCGGGCGCCACCCGCACGCACGTTGAATTCAACACATGTTCAACAGCGTCGGAGGCGGGGATAATCGAACCCTGAGCGCCCGCCGAGCGTTCGCCACGGCCGCCATCGTCCGCGTGAGGAACCCATGACCAAGCA (double strand) [P3599] | binds | binds
CGGACCGGAGTTCGAGGTACGCGGCTTGCAGGTCCAGGAAGGGGACGTCCATGCGAGTGTCCGTTCGAGTGGCGGCTTGCGCCCGATGCTAGTCGCGGTTGATCGGCGATCGCAGGTGCACGCGGTCGATCTTGACGGCTGGCGAGAGGTGCGGGGAGGATCTGACCGACGCGGTCCACACGTGGCACCGCGATGCTGTTGTGGGCTGGACAATCGTGCCGGTTGGTAGGATCCAGCGGTGAGCAGTTCGGACGAGCAGCCGCGCCCGCGTCGCCGCAACCAGGATCGGCAGCAC (double strand) [PeryCI-ermE] | no binding | 
